Experimental findings from patent US20210015870A1 (PROMAB BIOTECHNOLOGIES, published 2021) are described below.

One may read the Kd as the constant that tells how readily two partners part at equilibrium.

The target of experiment [1] is T1, CD18 protein fused with human Fc protein, expressed in transfected 293 cells (UniProt P05107 23-700, limits assumed).
T1 construct: Negative control for immunostaining; also called control CD18 protein; CD18-human Fc protein; not shown: human Fc
Kind of experiment: immunostaining of transfected 293 cells. The source says:
We transfected 293 cells either with BCMA (CD269)-human Fc protein or control CD18 protein fused with human Fc protein and performed immunostaining analysis. […] By IHC, clone 4C8A bound to RPMI8226 cells, myeloma primary tumors and normal human liver, but not to any other normal or other type cancer human tissues, confirming the specificity of BCMA expression. BCMA antibody detected also BCMA in primary multiple myeloma tumors.

Experiment [2] deals with T2, BCMA peptide (BCMA extracellular domain protein with a C-terminal deletion of 37 residues) (human).
T2 construct: also called BCMA shorter peptide; shorter peptide from BCMA extracellular domain
T2 peptide: MLQMAGQCSQNEYFDSL
Kind of experiment: ELISA, plate coated with BCMA peptide, HRP anti-mouse IgG and TMB, OD450. On the procedure:
We generated mouse monoclonal anti-human BCMA monoclonal antibody 4C8A using hybridoma. Dilutions of the antibody were incubated in ELISA plates coated with BCMA protein, or BCMA peptide (BCMA extracellular domain protein with a C-terminal deletion of 37 residues), or an irrelevant control CD363 protein. Binding of BCMA mAb 4C8A to the coated protein was detected with HRP-conjugated anti-mouse IgG and TMB substrate. […] The binding of BCMA to BCMA protein was in a dose-dependent manner: decreased with […] in contrast to negative controls (FIG. 4).
(In an ELISA, binding on a coated surface is turned into a signal by an enzyme label.)

The target of experiment [3] is T3, BCMA protein (recombinant human BCMA) (human, UniProt Q02223 1-54).
T3 construct: also called BCMA antigen; BCMA recombinant protein
T3 sequence: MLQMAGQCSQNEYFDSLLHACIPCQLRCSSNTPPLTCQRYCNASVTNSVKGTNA
Kind of experiment: BLItz biolayer interferometry, anti-mouse IgG biosensor, antibody at 100, 50 and 25 nM. On the procedure:
The BCMA 4C8A antibody was diluted to 100, 50 and 25 nM and added to the anti-mouse IgG biosensor (ForteBio Corp., Menlo Park, Calif.). After 5 minutes, the biosensor was rinsed free of unbound antibody. Binding was monitored by the BLItz system (ForteBio), and the antibody's dissociation constant was determined with the BLItz software.
(In BLI a coated tip is dipped into the sample, and binding shifts an interference pattern.)

T1 sequence (P05107 23-700 limits assumed): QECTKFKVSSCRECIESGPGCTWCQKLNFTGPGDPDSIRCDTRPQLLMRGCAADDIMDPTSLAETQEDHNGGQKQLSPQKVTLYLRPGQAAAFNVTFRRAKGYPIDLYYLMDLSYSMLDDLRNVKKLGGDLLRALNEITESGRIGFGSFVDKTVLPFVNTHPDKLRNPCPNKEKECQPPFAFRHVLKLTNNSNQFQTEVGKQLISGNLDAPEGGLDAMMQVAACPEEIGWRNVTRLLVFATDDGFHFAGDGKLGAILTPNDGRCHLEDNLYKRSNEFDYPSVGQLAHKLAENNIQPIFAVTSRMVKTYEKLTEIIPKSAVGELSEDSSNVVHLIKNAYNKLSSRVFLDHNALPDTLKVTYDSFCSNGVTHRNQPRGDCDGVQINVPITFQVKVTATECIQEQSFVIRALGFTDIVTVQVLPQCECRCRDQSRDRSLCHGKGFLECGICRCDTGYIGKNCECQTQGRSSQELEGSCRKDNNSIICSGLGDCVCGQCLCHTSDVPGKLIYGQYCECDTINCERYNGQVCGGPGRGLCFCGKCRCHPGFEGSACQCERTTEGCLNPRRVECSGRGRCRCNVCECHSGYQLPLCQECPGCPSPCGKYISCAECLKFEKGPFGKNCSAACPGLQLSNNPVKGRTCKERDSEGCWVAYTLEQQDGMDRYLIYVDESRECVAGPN

B1: mouse monoclonal anti-human BCMA antibody clone 4C8A (antibody, mouse IgG1, V domains shown)
VH: VQLQQSGPELVKPGASVKMSCKASGYTFTSYVMHWVKQKPGQGLEWIGYIIPYNDATKYNEKFKGKATLTSDKSSSTAYMELSSLTSEDSAVYYCARYNYDGYFDVWGAGTTVTVSS
VL: DIVMTQSPATLSVTPGDRVSLSCRASQSISDYLHWYQQKSHESPRLLIKYASQSISGIPSRFSGSGSGSDFTLSINSVEPEDVGVYYCQNGHSFPPTFGGGTKLEIK
notes: also called BCMA mAb 4C8A; BCMA 4C8A antibody
Consider B1, for which the binding result in experiment [1] and in experiment [2] was “no binding” in each case. The Kd in experiment [3] was around 2.8 nM.
